Test results published in the DeepSol protein solubility set.

Experiment: soluble on expression in E. coli; label from the status in PepcDB or PDB records
For “MSLSAPKQWQVGIVGYGEVGKILAEDLRAQGVKVAAYDVKLADDRGGPLREHASRHDVALTTSHAELAARSDFIISAVTASQTVAVAEACAGAINQGTWFLDFNSASPGAKQRAASLIDGAQGRYVEGAVMTSVPPYRIKVPLLLGGAYAAELAPLINTLGFAAKPASDQLGVASATKMCRSIMIKGLEAMVIESFTTARAYGVEDAVIASLQETFPQIDWEKQGAYFFQRVIAHGRRRAEEVREVAETVREAGLTPWSAQGTAERQAWVADLADEGLFGTRGASGFARSPDWRTEADRILAKVKDETKTEGHHHHHH”, the “soluble on expression in E. coli” value was “not soluble”. For “MESHENPGMFSRLLRLFHRENGDQGETRPRQKEFGILSYEKGRMKSFWGRHVSAGKTSSQSCNITNHMKNMNKLEDMKFYIRKINAEREELFRILDIDMNTDLNYSIRHTHLLKKCNQLKKKVRMLLNENRKLLVEQADQEASFGEEKSSVMRPARTYIPSAKQQQV”, the “soluble on expression in E. coli” value was “not soluble”. For “MGHHHHHHGGHMSLGALILSDRDIRALLAIGDLVVEPLSGDTVRENGLDLRLGRGFCRFKRSDRVLDPRAPGSPGEFYECGEGDEIIVGPGEHMLLHTQEYIRLPGYVAGLVNLRSTWARTGIYIPATVVDAGFEGQLTIEVVGSGFPVKLYPGDRFLHLVLVKLQSPAMNPYRGRYQGQRGVRLPKLFAKNTGEGGS”, the “soluble on expression in E. coli” value was “soluble”. For “MKEHIAAVHKQTIAQAAERLFLERGFDGTSISDICAASGYSRRTVYRYFDTKEEILYYIVANGLEQLRDRLTDIVQAEQPFLAKYEHICKAMRAYYEHCPISARAVHQFQPKALETVTPTMETIFSLGTAINDALARWIEQGIAEGVVRETADVMMTVYVFSAQLHALFDLVETKGAFLLPTLGKTKEQFFAYGQKMIFNSLAKEPLL”, the “soluble on expression in E. coli” value was “soluble”. In the case of “MGSDKIHHHHHHMQLIPLAERMRPVLLQDVYGQQHLIGEGMVFRRFVEEGKIPSMILWGPPGVGKTTLAQLLAKTVGLPFYTLSAISSGVKEVREVIANAQTDGKAVLFIDEIHRFSKSQQDALLGAVEKGTIQLIGATTENPSFEVIPALLSRCQVYVLQPLSEEELVELMRSALKKDAYLKTRSVEIKEHDSLLRLSGGDARKLLNLLELVIDASGKDPIVITDAYVQKIAQKKVASYDKNGEMHYDIISAFIKSVRGSDPNAAVYWLARMIEGGEDVEFIARRLLILASEDVGNANPTALVMATTAFDAVRFIGWPESRIILSQVTTYLASSPKSNASYMAINEAQQLVRSHGDLPVPIHLRNAPTKLMKDLDYGKEYKYAHSYEANFVEQEYMPDKLAGKKIFDPGNNAREQELRTFLQKRWKEKYKY”, the “soluble on expression in E. coli” value was “not soluble”. With “MAHHHHHHMLKHKYNDSCVQELFYKNNIKLIAIDIDGTLADDTGKISDENLKAIEVCKKGGIEIILASGRLHSYAMKMFTNEQIEKYKIEKLDGVYSHGAYIHMKGYDYVYRKFSYKDLELILFSLGSYNILRNAVFLTVDSAYVINDDIKLIEEYIYTPESEGIISDIEYVKIIDTNYKPILINKIKDIFNIGDIVSIEIYDKLYPNQDIYSDLFKVLFYELQPHYKIYIPSSNNKIVLSPINTAKVHTTQLYAQFYRINLNNILSIGNDDNDIELLSSTGFSVAVKNSTPRALQVARCVSTKTNNENAVANIIYRVLSGRRS” the “soluble on expression in E. coli” value was “not soluble”. In the case of “MSRVITHGQVKRVSETNAYAVPVESLTFPTLQPIGPLPPAGTTGVLITQRVPNTPYTPAPPPPPPVPANQTIIYEDGNNNNTIYMRVVSVVGPAKYNIEVL”, the “soluble on expression in E. coli” value was “not soluble”. For “MGSDKIHHHHHHMKDSALRVGIYQGPEIPQSFKVYAENVWRHLPKQDIATIPFKDRKDLPKSADVLWDIRSGGGNPPPDFLLEHPLPPLVVTVHGFAPLSLNGWEYFRTLKGLIMSGQYAKHKRERWREVRTAVGSIIAVSAFVKDEAIRFTGVPADRIHVCHHGVDGNAFTPGPDTESEPYFFHVSNDEPRKNVGAIVRAFRQLRRHCRVQLVLKLPEESARNYEKIEGIRVLSGFLTTEELVHLYRHALAFIFPSLYEGFGLPILEAMACGCPVITSNVSACREIAGEAARTINPRNESELLEAMEILYRNPEERRARTAMGLRRALGFSWEESAKCHARVLYMTADRNAPVASPD”, the “soluble on expression in E. coli” value was “not soluble”. In the case of “EMKVLVPDTSVIVDGRLTQYLERLKEKVKVVVPEAVVAEIEHQANAGKAIGHTGLEELKKLREIANEGKILLEFYGERPDLWQIRRAKSGEIDNMVREVARELNGVLVTGDQIQRDIAIAKGIDVIYLEAKREPRMRLEDFFDEE”, the “soluble on expression in E. coli” value was “not soluble”. In the case of “MLKVFADRGGTFTDIVAVTHNQEIIERLSKSTERFLIVPLPNQEWIIVYKLLSENPEQYQDAVIQGIRDIIGLSRNEPISDEAIEVVKMGTTVATNALLERKGDRVVLLITTGFKDALRIGYQNRPNIFAQRIVLPTMLYEQVIEVEERYDAQGNELTPVNIAQVKEDLQAVYHTGIRSCAIILMHSDRYPIHEQQVAQIAQEIG”, the “soluble on expression in E. coli” value was “not soluble”. For “MSDEIARLVADVFELAGLLRRSGEVVAAREGHTQARWQLLSVVSDRALTVPQAARRLGVTRQGVQRVANDLVVCGLAELRHNPDHRTSPLLVLTENGRRVLQAITERAIVVNNRLADAVDPAALQATRDSLRRMIVALKAERP”, the “soluble on expression in E. coli” value was “not soluble”. In the case of “MAHHHHHHMHLIYLKILFFSLLLDTFISSHTNIPRINNVTPKNVAINISPVVPIPDVITLDYIKENLEQIRLIKDIIIKGKLKKLKVLKQKCKKNKKDKEIKNEIENLEREIMDTRKLCNNYIKNEIKEIKSLKDQIVKDKIEKDRWKKDLLIDYELKRLMYKPDIERLKQLNEEYKKEELRVAKLKDNMFKIYQFILYLIPNTIYYTIEFINNIPEVELSLPKFLKKKKKKKVNHFSHYGVPYMK”, the “soluble on expression in E. coli” value was “soluble”. With “MKTYEVGALLEAANQRDTKKVKEILQDTTYQVDEVDTEGNTPLNIAVHNNDIEIAKALIDRGADINLQNSISDSPYLYAGAQGRTEILAYMLKHATPDLNKHNRYGGNALIPAAEKGHIDNVKLLLEDGREDIDFQNDFGYTALIEAVGLREGNQLYQDIVKLLMENGADQSIKDNSGRTAMDYANQKGYTEISKILAQYN” the “soluble on expression in E. coli” value was “soluble”. With “MAHHHHHHMLDFLDTINKYTLRSGSVTHIGGKISKKCAAQLVGSLVLQGRLNHYCAALAAQFMVSSEVLVVASRDAVQGISCEGCTLERQNLSSVPDTGEIFGVATTGNNVVVGYSAGVAMFSCKLELEKIYTLSEYTNSILGIAVTPDGSCLATGGANAIVTVWSRDMNPVHYLAGHTDWVRFVKFTIMDGRGLELFSTGDDGLVLHWDPLVGTLLSRIDFFHGQDIHAFEVSWRTGLIGIARDTPTICLYKPQISGIASNHAVGAVRLEQIGRIDDAHHSVLTALRFSNDSQWIVSAGEDETLSVSSVCQLKRVFVCETFIVRRHCMTFMNTFTSVCVLASPPESSAIIVVACATDGTVVQWVVNPETFKCTYTKKLQLL” the “soluble on expression in E. coli” value was “not soluble”. In the case of “SNAMSKDSESNLAQRQSQPKAHADLRINSHWIIPIENTTDHNLVSNILIDHCLLIKDGIILAIEPQSSCQIPATETLDLGQQVLMPGWVNAHGHAAMSLFRGLADDLPLMTWLQEHVWPAEAQHVDEHFVKQGTELAIAEMIQSGTTTFADMYFYPQQSGEAALAAGIRAVCFAPVLDFPTNYAQNADEYIRKAIECNDRFNNHPMNEQGLVQIGFGPHAPYTVSDEPLKEITMLSDQLDMPVQIHLHETDFEVSESLETFNKRPTQRLADIGFLNERVSCVHMTQVDDGDIKILQKTGASIIHCPESNLKLASGFCPIAKLSAANIPLAIGTDGAASNNDLDMFSETKTAALLAKGVSQDASAIPAIEALTMATLGGARALGIDDITGSLKPGKAADIQAIDLNTLSSQPVFDPVSHMVYCTKSTQVSHVWVNGRCLLKNGELTTLNEETLINHAKAWASAIRTPIK”, the “soluble on expression in E. coli” value was “soluble”. With “GSHGMSKSPEEEHPVKAFGWAARDQSGHLSPFNFSRRATGEEDVRFKVLYCGVCHSDLHSIKNDWGFSMYPLVPGHEIVGEVTEVGSKVKKVNVGDKVGVGCLVGACHSCESCANDLENYCPKMILTYASIYHDGTITYGGYSNHMVANERYIIRFPDNMPLDGGAPLLCAGITVYSPLKYFGLDEPGKHIGIVGLGGLGHVAVKFAKAFGSKVTVISTSPSKKEEALKNFGADSFLVSRDQEQMQAAAGTLDGIIDTVSAVHPLLPLFGLLKSHGKLILVGAPEKPLELPAFSLIAGRKIVAGSGIGGMKETQEMIDFAAKHNITADIEVISTDYLNTAMERLAKNDVRYRFVIDVGNTLAATKP” the “soluble on expression in E. coli” value was “soluble”. For “MSLDEKKLKALAVELAKGLKTEADLNSFSRMLAKLTVETVLNAELADHPGYEKNAPKTGSNTRNGYSSKTVLCDDGEIELNTPRDRENTFEPQLLKKHQTRITQMDSQILSLYAKGMTTREIVATFKEMYDANVSPSLISKVTDAVKEQVTERQNRQPDALYPIVYMDCIVVKVRQNGSVINKAVFLALGINTEGQKELLGMWLAENEGEKFWLSVLTELKTRGVQDILIACVDGLKGFPDAINSVFPQPHIQLCIIHMVRNSLKYVAWKGYKVATSGLRLRPKRRHEGHHHHHH”, the “soluble on expression in E. coli” value was “not soluble”. With “MLSEVEFVEFQKENFSLLIDARSPREFLHSHLIGALNFYALNDEEYQEIGTIYKKNQALAKAMGASYICQNTTKHILEITQNFRIGEKVGIYCSRGGLRSKSIAVILSELGFRVVRLKGGFKAYRTFVTHYFENEINFDFFALCGNTGCGKTELLEQLPQAINLEKMANHLGSSFGDILGKQPTQKAFEAELFHNIQNLENFAFIESESRKIGDIILPLKFYEKMQKAFKIYCFCSLENRVRRIQKIYQEKMTPLKFQQCVQKISPYISLNLRQDLLQSYERKEWQKLIVMLLEYYDKTYKKPDKIDLELNTDDILKAKEELLDHFKVQLLF” the “soluble on expression in E. coli” value was “not soluble”. For “MLNARINQSIKCNQVRIHNVADKITWAELTKIEQLLKIIPQWEKLIKIQTTSKIFNSTSWVASWLETFWQKNWQLNVLIAWCDDELIAIVPLYYQQNNSILPMKVLYPLGQGEAEAQEISTEYTDILINEKFQEHLLPKIQQWILNLKADQLHWHALLHNSSTRNILADYEQTKSNEATRYIVNGLNWSLENLSKNMRSRYRRGLNQLDKLNATIDWVEQSDFDQYWQLMKKLHQKRWQGKNAKGAFCSDEFNQFHAKFREKSPKNIAMSAIWVNDTPIAIHYYFSDATTLYFYQSGWNESEYSHLSPGLILHLWTIENNNKPYYDFMMGKKKDSYKAKFATLQQPMYNITLTFSPIKLLFYSVFEKIKVKYLSA”, the “soluble on expression in E. coli” value was “not soluble”. With “TDIAGLTIEHVTGDYLNGFRIIPDNIKYKGVIVTFGGSDGTPAYEQAVQLAQEGYQVLALFFFGMPNQHPTLAEVPVEYYQEIESYISQHFSQPDKITVIGTSKGAEYALLLASLYDSIDNVVLYAPSSHIYAGLDFRNYSSSWSQNGKALPYLDVRSENSLKLFYNFLIKTPISYYHTYKQALDKDKNSEDKRIKVEKTKANILIFAGENDRMWPSAESARLIEKYQPNHTQVTIYKEAGHLFAGDGI” the “soluble on expression in E. coli” value was “not soluble”. For “FTSNKDERRWMVQCGSFRGAEQAETVRAQLAFEGFDSKITTNNGWNRVVIGPVKGKENADSTLNRLKMAGHTNCIRLAAGG”, the “soluble on expression in E. coli” value was “soluble”. In the case of “PLPIPPPPPDIQPLERYWAAHQQLRETDIPQLSQASRLSTQQVLDWFDSRLPQPAEV”, the “soluble on expression in E. coli” value was “soluble”. For “MGSDKIHHHHHHMIDKLEFFIALAKEEHFGRAAEACGVTQPTLSAGIKQLEGQLGVMLVNRGSRFQGLTPEGKQVLVWARRIVGDSRSMREEMRAARHGLSGRIRIAAIPTALAMVARLTTPFREKHPGVTFSVLSRTSIEVLSLLGNFDIDAGITYLDNEPLGRVTSVPLYDERYQLITAVGNPYSDRDKVTWAEISRLPLCLLTPDMQNRRIIDQHLAEAGVQVRPTLESNSMIVLFSHIRTGKWSSIMPLNLAETFGFSEPIRAIPIVEPDASHTVGLVAAPREPHTPLVQALLDEAMALADDFRAHR”, the “soluble on expression in E. coli” value was “not soluble”. In the case of “MRLSFLTLQRRNAVGDALRHKSALRRILKTGRRASGTACDAERRTIVEKLPHDSLEHHHHHH”, the “soluble on expression in E. coli” value was “not soluble”.
